Reference: IntAct's records for PubMed 27487388

B1: Microsomal triglyceride transfer protein large subunit (Homo sapiens), P55157 (parent)
chain: MILLAVLFLCFISSYSASVKGHTTGLSLNNDRLYKLTYSTEVLLDRGKGKLQDSVGYRISSNVDVALLWRNPDGDDDQLIQITMKDVNVENVNQQRGEKSIFKGKSPSKIMGKENLEALQRPTLLHLIHGKVKEFYSYQNEAVAIENIKRGLASLFQTQLSSGTTNEVDISGNCKVTYQAHQDKVIKIKALDSCKIARSGFTTPNQVLGVSSKATSVTTYKIEDSFVIAVLAEETHNFGLNFLQTIKGKIVSKQKLELKTTEAGPRLMSGKQAAAIIKAVDSKYTAIPIVGQVFQSHCKGCPSLSELWRSTRKYLQPDNLSKAEAVRNFLAFIQHLRTAKKEEILQILKMENKEVLPQLVDAVTSAQTSDSLEAILDFLDFKSDSSIILQERFLYACGFASHPNEELLRALISKFKGSIGSSDIRETVMIITGTLVRKLCQNEGCKLKAVVEAKKLILGGLEKAEKKEDTRMYLLALKNALLPEGIPSLLKYAEAGEGPISHLATTALQRYDLPFITDEVKKTLNRIYHQNRKVHEKTVRTAAAAIILNNNPSYMDVKNILLSIGELPQEMNKYMLAIVQDILRFEMPASKIVRRVLKEMVAHNYDRFSRSGSSSAYTGYIERSPRSASTYSLDILYSGSGILRRSNLNIFQYIGKAGLHGSQVVIEAQGLEALIAATPDEGEENLDSYAGMSAILFDVQLRPVTFFNGYSDLMSKMLSASGDPISVVKGLILLIDHSQELQLQSGLKANIEVQGGLAIDISGAMEFSLWYRESKTRVKNRVTVVITTDITVDSSFVKAGLETSTETEAGLEFISTVQFSQYPFLVCMQMDKDEAPFRQFEKKYERLSTGRGYVSQKRKESVLAGCEFPLHQENSEMCKVVFAPQPDSTSSGWF
partner: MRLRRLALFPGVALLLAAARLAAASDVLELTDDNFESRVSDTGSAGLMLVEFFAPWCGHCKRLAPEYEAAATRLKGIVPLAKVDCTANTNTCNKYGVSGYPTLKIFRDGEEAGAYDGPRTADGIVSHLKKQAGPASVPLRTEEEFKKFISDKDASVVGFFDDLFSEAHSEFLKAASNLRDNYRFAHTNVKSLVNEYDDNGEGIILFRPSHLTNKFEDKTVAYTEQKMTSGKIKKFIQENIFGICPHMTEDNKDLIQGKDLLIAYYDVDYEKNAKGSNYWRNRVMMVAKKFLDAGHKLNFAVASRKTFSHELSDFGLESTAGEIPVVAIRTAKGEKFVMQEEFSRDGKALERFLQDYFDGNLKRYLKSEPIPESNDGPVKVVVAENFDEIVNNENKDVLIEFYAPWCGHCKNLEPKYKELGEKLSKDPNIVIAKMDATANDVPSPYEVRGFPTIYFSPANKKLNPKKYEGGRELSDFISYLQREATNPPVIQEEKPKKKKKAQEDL
B2: Microsomal triglyceride transfer protein large subunit (Homo sapiens), P55157 (parent)
chain: B1 chain

Variants of: B1
Details: with pdia3_chlae PDIA3, Q4VIT4

Row | Variant | effect of a mutation on the interaction
1 | D361E | with no effect
2 | D361Y | decreasing interaction strength

Variants of: B1
Details: with pdia3_chlae PDIA3, Q4VIT4
Remark: another data set of the same source

Row | Variant | effect of a mutation on the interaction
3 | D361Y | disrupting interaction strength

Variants of: B2
Details: with apob_human APOB

Row | Variant | effect of a mutation on the interaction
4 | D361Y | with no effect
5 | D361E | with no effect

Variants of: B2
Details: with apob_human APOB
Remark: another data set of the same source

Row | Variant | effect of a mutation on the interaction
6 | D361E | increasing interaction strength
